Experimental data from publication doi:10.1101/2020.07.10.197400 (bioRxiv, 2020).

Assays:
[1] = molecular target: Trx-kindlin2_F2 (residues 260 – 572) without PH domain (mouse); experiment: SEC-MALS
[2] = molecular target: the molecule itself; experiment: SEC-MALS

| stoichiometry N [1] | Molecule | stoichiometry N [2] |
| --- | --- | --- |
| 2 | Trx-kindlin2_F2 (residues 260 – 572) without PH domain (domain or fragment) |  |
|  | GCN4-tetramerized β1-integrin tail (domain or fragment) MKQIEDKLEEILSKLYHIENELARIKKLLGERIIHDRREFAKFEKEKMNAKWDTGENPIYKSAVTTVVNPKYEGK | 4 |
